In patent publication US12630599B2, “CA2 compositions and methods for tunable regulation” (Obsidian Therapeutics, Inc., priority 2019, dated 2026):

B1: OT-002011: construct transduced into T cells for the study of the effect of mbIL12 on CAR activity (protein)
chain: IWELKKDVYVVELDWYPDAPGEMVVLTCDTPEEDGITWTLDQSSEVLGSGKTLTIQVKEFGDAGQYTCHKGGEVLSHSLLLLHKKEDGIWSTDILKDQKEPKNKTFLRCEAKNYSGRFTCWWLTTISTDLTFSVKSSRGSSDPQGVTCGAATLSAERVRGDNKEYEYSVECQEDSACPAAEESLPIEVMVDAVHKLKYENYTSSFFIRDIIKPDPPKNLQLKPLKNSRQVEVSWEYPDTWSTPHSYFSLTFCVQVQGKSKREKKDRVFTDKTSATVICRKNASISVRAQDRYYSSSWSEWASVPCSGGGGSGGGGSGGGGSRNLPVATPDPGMFPCLHHSQNLLRAVSNMLQKARQTLEFYPCTSEEIDHEDITKDKTSTVEACLPLELTKNESCLNSRETSFITNGSCLASRKTSFMMALCLSSIYEDLKMYQVEFKTMNAKLLMDPKRQIFLDQNMLAVIDELMQALNFNSETVPQKSSLEEPDFYKTKIKLCILLHAFRIRAVTIDRVMSYLNASGSGSGSGSGSGSGSGSGSGSGSGSGSGSGSLDFACDLLPSWAITLISVNGIFVICCLTYCFAPRCRERRGS
B2: OT-002111: construct transduced into T cells for the study of the effect of mbIL12 on CAR activity (protein)
chain: IWELKKDVYVVELDWYPDAPGEMVVLTCDTPEEDGITWTLDQSSEVLGSGKTLTIQVKEFGDAGQYTCHKGGEVLSHSLLLLHKKEDGIWSTDILKDQKEPKNKTFLRCEAKNYSGRFTCWWLTTISTDLTFSVKSSRGSSDPQGVTCGAATLSAERVRGDNKEYEYSVECQEDSACPAAEESLPIEVMVDAVHKLKYENYTSSFFIRDIIKPDPPKNLQLKPLKNSRQVEVSWEYPDTWSTPHSYFSLTFCVQVQGKSKREKKDRVFTDKTSATVICRKNASISVRAQDRYYSSSWSEWASVPCSGGGGSGGGGSGGGGSRNLPVATPDPGMFPCLHHSQNLLRAVSNMLQKARQTLEFYPCTSEEIDHEDITKDKTSTVEACLPLELTKNESCLNSRETSFITNGSCLASRKTSFMMALCLSSIYEDLKMYQVEFKTMNAKLLMDPKRQIFLDQNMLAVIDELMQALNFNSETVPQKSSLEEPDFYKTKIKLCILLHAFRIRAVTIDRVMSYLNASGSGSGSGSADFPTPSISDFEIPTSNIRRIICSTSGGFPEPHLSWLENGEELNAINTTVSQDPETELYAVSSKLDFNMTTNHSFMCLIKYGHLRVNQTFNWNTTKQEHFPDNGS

Tested on: Nalm-6 cells
Assay: 48 hour cytotoxicity assay, T cells co-cultured with Nalm-6 cells (NucRed), Incucyte (Example 4, Table 14)
Type: cell-based
Conditions: for Average Total Nalm6-NucRed Area after 48 hour at E:T ratio of 3:1: E:T ratio 3:1, 48 hour; for Average Total Nalm6-NucRed Area after 48 hour at E:T ratio of 10:1: E:T ratio 10:1, 48 hour
Text: The following constructs were transduced into T cells: OT-001356 (nucleic acid sequence SEQ ID NO: 6081 encodes two amino acid sequences, first is SEQ ID NO: 6082 (nucleic acid sequence SEQ ID NO: 6083) second is SEQ ID NO: 6084 (nucleic acid sequence SEQ ID NO: 6085)), OT-001356 (amino acid sequence provided as SEQ ID NO: 6092 and nucleic acid is SEQ ID NO: 6093) OT-001407 (amino acid sequence provided as SEQ ID NO: 6086 and nucleic acid is SEQ ID NO: 6087), OT-001895, OT-002011, OT-002111, OT-0020%, OT-02171. The cells were expanded for 10 days and utilized for cytotoxicity assays. Percentage of CAR positive cells obtained with each of the constructs was as follows: OT-001356: 45.3%; OT-001407, OT-001895: 29.4%, OT-002011: 24.3%, OT-002111: 19.6%, OT-0020%: 6.08%, OT-002171: 13.3%. For cytotoxicity assays, T cells were thawed and co-cultured with Nalm-6 cells (stably expressing NucRed) at different T cells to Nalm-6 cell culture ratios. Target cell viability was determined by measuring cellular fluorescence over time using an Incucyte assay and the results are shown in Table 14.

Molecule | Average Total Nalm6-NucRed Area after 48 hour at E:T ratio of 3:1 | Average Total Nalm6-NucRed Area after 48 hour at E:T ratio of 10:1
B1 | 59,465 | 44,301
B2 | 42,520 | 42,899
